Ends that are not written are not given here. Me3 = trimethyl-lysine; Me2 = dimethyl-lysine

Holding throughout (experiment): peptide or protein array; SPOT peptides on cellulose membrane; 1 μM 6xHis-tagged MLL4 PHD cassette in TBS-T overnight at 4 °C; probed with anti-6xHis-HRP, chemiluminescence; signals relative to the H4K20me0 peptide (100%), spots of at least 50% taken as candidate binders
Details in all cases: both partners purified

The target in test [1] is T1, MLL4 PHD7 (residues 5079–5152) (UniProt O14686 5079-5152).
T1 construct: MLL4 (KMT2D, ALR), PHD finger 7, residues 5079–5152; Detected on the array with anti-6xHis-HRP; The purification of the PHD constructs is not described separately; also called KMT2D PHD7; source: bacterially expressed recombinant
T1 sequence (O14686 5079-5152): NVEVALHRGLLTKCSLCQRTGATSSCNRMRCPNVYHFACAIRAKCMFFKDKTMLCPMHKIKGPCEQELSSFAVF

The target of test [2] is T2, MLL4 PHD1–3 (residues 156–341) (UniProt O14686 156-341).
T2 construct: MLL4 (KMT2D, ALR), PHD fingers 1–3, residues 156–341; Detected on the array with anti-6xHis-HRP; The purification of the PHD constructs is not described separately; also called MLL4 PHD1–3 cassette; KMT2D PHD1–3; source: bacterially expressed recombinant
T2 sequence (looked up): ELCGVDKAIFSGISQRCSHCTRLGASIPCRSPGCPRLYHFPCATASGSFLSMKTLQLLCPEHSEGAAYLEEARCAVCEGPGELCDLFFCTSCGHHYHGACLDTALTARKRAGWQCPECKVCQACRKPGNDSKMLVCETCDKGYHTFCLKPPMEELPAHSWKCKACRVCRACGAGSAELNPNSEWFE

Test [3] addresses T3, MLL4 PHD4–6 (residues 1358–1572) (UniProt O14686 1358-1572).
T3 construct: MLL4 (KMT2D, ALR), PHD fingers 4–6, residues 1358–1572; Detected on the array with anti-6xHis-HRP; The purification of the PHD constructs is not described separately; also called MLL4 PHD4–6 cassette; KMT2D PHD4–6; source: bacterially expressed recombinant

T3 sequence (O14686 1358-1572): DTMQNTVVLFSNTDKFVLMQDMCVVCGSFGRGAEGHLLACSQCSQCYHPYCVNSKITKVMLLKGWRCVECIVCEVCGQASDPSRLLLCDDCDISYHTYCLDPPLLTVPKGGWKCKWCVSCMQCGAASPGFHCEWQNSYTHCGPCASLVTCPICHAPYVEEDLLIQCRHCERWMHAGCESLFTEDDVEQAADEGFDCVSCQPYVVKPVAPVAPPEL

B1: CFP1 K335me0 peptide (peptide, UniProt Q9P0U4 325-345, looked up)
peptide: VKVKHVKRREKKSEKKKEERY
notes: CFP1 (CXXC finger protein 1), human, peptide centred on K335 with 10 flanking residues on each side; held on the cellulose membrane of the array; also called unmethylated K335; source: synthetic peptide, SPOT synthesis on cellulose membrane
Consider B1, for which the binding result in test [1], in test [2] and in test [3] was “binds” in each case.

B2: CFP1 K335me1 peptide (peptide, UniProt Q9P0U4 325-345, looked up)
peptide: VKVKHVKRREK(Me)KSEKKKEERY
notes: CFP1 (CXXC finger protein 1), human, peptide centred on K335 with 10 flanking residues on each side; held on the cellulose membrane of the array; source: synthetic peptide, SPOT synthesis on cellulose membrane
On to B2, for which the binding result in test [2] and in test [3] was “binds” throughout.

B3: CFP1 K340me3 peptide (peptide, UniProt Q9P0U4 330-350, looked up)
peptide: VKRREKKSEKK(Me3)KEERYKRHRQ
notes: CFP1 (CXXC finger protein 1), human, peptide centred on K340 with 10 flanking residues on each side; held on the cellulose membrane of the array; source: synthetic peptide, SPOT synthesis on cellulose membrane
Turning to B3, in test [3], the binding result is recorded as “binds”.

B4: CFP1 K351me2 peptide (peptide, UniProt Q9P0U4 341-361, looked up)
peptide: KEERYKRHRQK(Me2)QKHKDKWKHP
notes: CFP1 (CXXC finger protein 1), human, peptide centred on K351 with 10 flanking residues on each side; held on the cellulose membrane of the array; source: synthetic peptide, SPOT synthesis on cellulose membrane
For B4, the binding result in test [3] is “binds”.

B5: CFP1 K339me1 peptide (peptide, UniProt Q9P0U4 329-349, looked up)
peptide: HVKRREKKSEK(Me)KKEERYKRHR
notes: CFP1 (CXXC finger protein 1), human, peptide centred on K339 with 10 flanking residues on each side; held on the cellulose membrane of the array; source: synthetic peptide, SPOT synthesis on cellulose membrane
Turning to B5, in test [2], the binding result is “binds”.

B6: CFP1 K335me3 peptide (peptide, UniProt Q9P0U4 325-345, looked up)
peptide: VKVKHVKRREK(Me3)KSEKKKEERY
notes: as for B2
For the molecule B6, the binding result in test [2] and in test [3] was “binds” each time.

B7: CFP1 K335me2 peptide (peptide, UniProt Q9P0U4 325-345, looked up)
peptide: VKVKHVKRREK(Me2)KSEKKKEERY
notes: as for B2
As to B7, the binding result in test [2] and in test [3] was “binds” each time.

B8: CFP1 K331me1 peptide (peptide, UniProt Q9P0U4 321-341, looked up)
peptide: RKRAVKVKHVK(Me)RREKKSEKKK
notes: CFP1 (CXXC finger protein 1), human, peptide centred on K331 with 10 flanking residues on each side; held on the cellulose membrane of the array; also called K331 Kme1; source: synthetic peptide, SPOT synthesis on cellulose membrane
For the molecule B8, in test [2], the binding result is listed as “binds”.

The values are drawn from PMC12551112, “Exploration into the MLL4/WRAD Enzyme-Substrate Network: Systematic In Vitro Identification of CFP1 as a Potential Non-Histone Substrate of the MLL4 Lysine Methyltransferase” (Epigenomes, 2025).
